Assay results from patent publication US20040087783.

Molecular target: denatured enolase

B1: N-terminal hexahistidine tagged SAD (protein)
chain: MRGSHHHHHHEPFLRRRLAFLSFFWDKIWPAGGEPDHGTPGSLDPNTDPVPTLPAEPCSPFPQLFLALYDFTARCGGELSVRRGDRLCALEEGGGYIFARRLSGQPSAGLVPITHVAKASPETLSDQPWYFSGVSRTQAQQLLLSPPNEPGAFLIRPSESSLGGYSLSVRAQAKVCHYRVSMAADGSLYLQKGRLFPGLEELLTYYKANWKLIQNPLLQPCMPQKAPRQDVWERPHSEFALGRKLGEGYFGEVWEGLWLGSLPVAIKVIKSANMKLTDLAKEIQTLKGLRHERLIRLHAVCSGGEPVYIVTELMRKGNLQAFLGTPEGRALRLPPLLGFACQVAEGMSYLEEQRVVHRDLAARNVLVDDGLACKVADFGLARLLKDDIYSPSSSSKIPVKWTAPEAANYRVFSQKSDVWSFGVLLHEVFTYGQCPYEGMTNHETLQQIMRGYRLPRPAACPAEVYVLMLECWRSSPEERPSFATLREKLHAIHRCHP
  phosphorylation of substrate, in vitro kinase assay with 32P-ATP, autoradiography: SAD was able to phosphorylate both denatured enolase and poly-Glu-Tyr in vitro
